Experimental findings from PMC8525636 are described below.

In assay [1] the target is recombinant human IgA1-Fc CH2-CH3-TP, C471S mutant. Briefly: SEC (size-exclusion chromatography), self-association into poly-hu-rIgA. The conditions noted are these: parent: est. 9.0; read off a plot. On the technique in general: SEC sorts molecules by how far they enter the pores of the column.
In assay [2] the target is recombinant rat IgA-Fc segment CH2-CH3-TP, C311S mutant. Put plainly: SEC (size-exclusion chromatography), self-association into poly-rIgA. The conditions noted are these: parent: est. 32; read off a plot.
Assay [3] has as its target recombinant rat IgA-Fc segment CH2-CH3-TP, C311/471S double mutant. The assay is described as above. Particulars: parent: est. 32; read off a plot.
Assay [4] concerns the target recombinant rat IgA-Fc segment CH2-CH3-TP, C471S mutant. The description is as above. Particulars: parent: est. 32; read off a plot.

Take “recombinant human IgA1-Fc CH2-CH3-TP, wild type (human rIgA1-Fc) C471S”: the other: Distribution (%), poly-hu-rIgA share of SEC AUC in assay [1] amounted to 4%.

With “recombinant rat IgA-Fc segment CH2-CH3-TP, wild type (rat rIgA) C311S”, the other: Distribution (%), poly-rIgA share of SEC AUC in assay [2] stood at 28%.

“recombinant rat IgA-Fc segment CH2-CH3-TP, wild type (rat rIgA) C311S; C471S”: the other: Distribution (%), poly-rIgA share of SEC AUC in assay [3] is 1.5%.

Regarding “recombinant rat IgA-Fc segment CH2-CH3-TP, wild type (rat rIgA) C471S”, the other: Distribution (%), poly-rIgA share of SEC AUC in assay [4] stood at 2.5%.
